In one experiment the target is TLR2 G593A. Put plainly: homotypic ToxR assay. Conditions: higher signal = more homotypic TMD association; parent: est. 1.0; read off a plot.
The target of experiment [1] is synthetic TLR6 transmembrane domain peptide, coumarin-labelled (human). The experiment in a line: AUC; sedimentation equilibrium; labelled peptide in density matched C14-betaine micelles (10 mM), 100 mM HEPES pH 7.4; FITC-TLR2 read at 495 nm, coumarin-TLR6 at 400 nm; for the heterotypic run FITC-TLR2 with 2 equiv. of coumarin-TLR6; global fit.
Experiment [2] shares this target. The experiment in a line: FRET or BRET; coumarin-TLR1 or -TLR6 peptide (donor) fixed at 20 nM, fluorescein-TLR2 peptide (acceptor) titrated 0-1500 nM; 1 mM C14-betaine micelles, 100 mM HEPES pH 7.4; excitation 415 nm; Hill equation. Background: Bioluminescence resonance energy transfer reports proximity on the nanometre scale.
Experiment [3] deals with synthetic TLR1 transmembrane domain peptide, coumarin-labelled (human). Described as above.
For experiment [4], the target named is synthetic TLR2 transmembrane domain peptide, fluorescein-labelled (human). Put plainly: AUC; sedimentation equilibrium; labelled peptide in density matched C14-betaine micelles (10 mM), 100 mM HEPES pH 7.4; FITC-TLR2 read at 495 nm, coumarin-TLR6 at 400 nm; for the heterotypic run FITC-TLR2 with 2 equiv. of coumarin-TLR6; global fit.
The target of another experiment is TMD5 D150A. Put plainly: homotypic ToxR assay. The conditions noted are these: higher signal = more homotypic TMD association; parent: est. 1.0; read off a plot.
Experiment [5] has as its target T1, TLR4 transmembrane domain (ToxR chimera).
T1 chain: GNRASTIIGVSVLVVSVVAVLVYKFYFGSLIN
Put plainly: heterotypic ToxR assay. Conditions: chain shown with the change; competitor TLR4* (nonfunctional ToxR* chimera); PolyLeu* = 1.0; lower signal = more ToxR inhibition = more interaction; parent: est. 0.90; read off a plot.

Experiment [6] addresses T2, TLR10 transmembrane domain (ToxR chimera).
T2 chain: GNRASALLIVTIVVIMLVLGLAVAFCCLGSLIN
Put plainly: heterotypic ToxR assay. Conditions: chain shown with the change; competitor TLR10* (nonfunctional ToxR* chimera); PolyLeu* = 1.0; lower signal = more ToxR inhibition = more interaction; parent: est. 0.41; read off a plot.

The target of experiment [7] is T3, TLR2 transmembrane domain (ToxR chimera).
T3 chain: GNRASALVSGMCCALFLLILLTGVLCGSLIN
Put plainly: heterotypic ToxR assay. The conditions noted are these: chain shown with the change; competitor TLR2* (nonfunctional ToxR* chimera); PolyLeu* = 1.0; lower signal = more ToxR inhibition = more interaction; parent: est. 0.42; read off a plot.

Experiment [8] addresses T4, TLR5 transmembrane domain (ToxR chimera).
T4 chain: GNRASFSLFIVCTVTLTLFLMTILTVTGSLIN
Put plainly: heterotypic ToxR assay. The conditions noted are these: chain shown with the change; competitor TLR5* (nonfunctional ToxR* chimera); PolyLeu* = 1.0; lower signal = more ToxR inhibition = more interaction; parent: est. 0.53; read off a plot.

For experiment [9], the target named is T5, TLR1 transmembrane domain (ToxR chimera).
T5 chain: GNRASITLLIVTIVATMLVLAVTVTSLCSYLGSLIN
The experiment in a line: heterotypic ToxR assay. The conditions noted are these: chain shown with the change; competitor TLR1* (nonfunctional ToxR* chimera); PolyLeu* = 1.0; lower signal = more ToxR inhibition = more interaction; parent: est. 0.47; read off a plot.

Experiment [10] concerns the target T6, TLR6 transmembrane domain (ToxR chimera).
T6 chain: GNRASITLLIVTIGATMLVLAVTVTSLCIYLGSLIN
The experiment in a line: heterotypic ToxR assay. Conditions: chain shown with the change; competitor TLR6* (nonfunctional ToxR* chimera); PolyLeu* = 1.0; lower signal = more ToxR inhibition = more interaction; parent: est. 0.24; read off a plot.

Experiment [11] addresses T7, TLR2 transmembrane domain C609I (ToxR chimera), O60603.
T7 chain: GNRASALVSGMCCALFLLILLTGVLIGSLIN
The experiment in a line: homotypic ToxR assay. The conditions noted are these: chain shown with the change; higher signal = more homotypic TMD association; parent: est. 1.0; read off a plot.

“And” between values parts separate entries of the source, which are not always exact repeats. Equal values may be shown once.

In the case of “TLR2 transmembrane domain (ToxR chimera) G593A”, in the experiment with TLR2 G593A, the response (normalized Miller units) was found to be 1.1.
Regarding “synthetic TLR6 transmembrane domain peptide, coumarin-labelled”, the stoichiometry N in experiment [1] was 2.
Regarding “synthetic TLR2 transmembrane domain peptide, fluorescein-labelled”, the Kd in [2] was found to be 286 nM; in experiment [3], 231 nM. Besides, the stoichiometry N in [4] was 2 and 4.
Take “TMD5 from latent membrane protein 1 (ToxR* chimera) D150A”: the response (normalized Miller units) with TMD5 D150A turned out to be 0.59.
Turning to GNRASALVSGMCCALFLLILLTGVLIGSLIN [TLR2 transmembrane domain (ToxR chimera) C609I], the response (normalized Miller units) in experiment [5] is 0.88; in experiment [6] it was 0.63; in [7] it was 0.55; in experiment [8], 0.81; in experiment [9], 0.78; in experiment [10], 0.82. Besides, the response (normalized Miller units) in [11] is 1.1.

One may read the stoichiometry N as the number of molecules, sites or subunits per partner or assembly. By Kd is commonly meant the free concentration of one partner at which half of the binding sites on the other are occupied at equilibrium, for simple one-to-one binding. A low value points to a tighter complex.

These data come from article PMC3498381, “Isolated Toll-like Receptor Transmembrane Domains Are Capable of Oligomerization” (PLoS ONE, 2012).
